Substitutions are numbered along the chain they refer to.
T1: recombinant human ST2/IL-1R4 Fc chimera (R&D Systems, Cat. No. 523-ST) (human, UniProt Q01638 19-328)
T1 construct: Bought product; also called ST2/IL-1R4 protein; not shown: Fc part of the bought chimera (captured by anti-human IgG Fc)
T1 sequence (looked up): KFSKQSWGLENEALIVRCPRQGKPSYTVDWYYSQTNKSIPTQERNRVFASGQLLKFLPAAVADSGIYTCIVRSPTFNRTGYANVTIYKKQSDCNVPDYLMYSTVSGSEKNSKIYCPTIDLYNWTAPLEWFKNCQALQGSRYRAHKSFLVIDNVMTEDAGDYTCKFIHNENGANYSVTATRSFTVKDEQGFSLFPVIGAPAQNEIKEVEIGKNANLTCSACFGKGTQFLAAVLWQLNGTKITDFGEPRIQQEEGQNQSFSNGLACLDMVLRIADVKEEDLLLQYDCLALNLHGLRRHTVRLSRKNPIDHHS

T2: human IL33R (ST2) on human cells (human, UniProt Q01638 19-556)
T2 sequence (looked up): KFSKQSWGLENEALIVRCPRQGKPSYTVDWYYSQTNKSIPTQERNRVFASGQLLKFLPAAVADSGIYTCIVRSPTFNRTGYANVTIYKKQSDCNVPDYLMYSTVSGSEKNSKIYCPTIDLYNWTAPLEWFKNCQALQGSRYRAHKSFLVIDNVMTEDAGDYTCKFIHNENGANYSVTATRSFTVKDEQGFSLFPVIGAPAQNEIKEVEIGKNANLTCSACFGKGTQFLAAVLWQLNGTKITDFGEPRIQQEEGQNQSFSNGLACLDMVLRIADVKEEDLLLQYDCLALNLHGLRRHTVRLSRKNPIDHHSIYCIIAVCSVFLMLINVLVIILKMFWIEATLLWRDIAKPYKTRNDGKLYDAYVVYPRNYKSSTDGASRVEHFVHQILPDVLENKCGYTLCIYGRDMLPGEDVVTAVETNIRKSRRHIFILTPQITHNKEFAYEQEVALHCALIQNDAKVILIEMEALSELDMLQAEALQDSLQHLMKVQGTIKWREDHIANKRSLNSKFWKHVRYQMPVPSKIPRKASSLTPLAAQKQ

T3: Monomeric human ST2 ECD with 6His Avitag (human, UniProt Q01638 19-328)
T3 construct: extracellular domain; also called human ST2 ECD (His-Avitag monomer); not shown: 6His Avitag
T3 sequence (looked up): T1 sequence (looked up)

B1: Antibody ra170 (rabbit IgG1) (antibody, V domains shown)
VH: QSVEESGGRLVTPGTPLTLTCTVSGFSLSSHDMSWVRQAPGKGLEWIGYIWSDDNTYYASWAKGRFTISKTSTTVDLKITSPTTEDTATYFCARDQYRSSGVSDYDIWGPGTLVTVSS
VL: AAVLTQTPSPVSAAVGGTVTISCQSSQSVGNNNDLAWYQQKPGQPPKILIYKASTLASGVPSRFEGSGSGTQFTLTISDVQCDDAATYYCLGGYDDDADNTFGGGTEVVVK
notes: Rabbit monoclonal from B cell cloning; they are assigned to this molecule; also called Mab ra170; clone Ra170
B2: ra170 IgG4 SPLE (antibody, V domains shown)
VH: B1 VH
VL: AAVLTQTPSPVSAAVGGTVTISCQSSQSVGNNNDLAWYQQKPGQPPKILIYKASTLASGVPSRFEGSGSGTQFTLTISDVQCDDAATYYCLGGYDDDADNTFGGGTEVVVKR
B3: humanized ra170 10.12 (antibody, V domains shown)
VH: VQLVQSGAEVKKPGASVKVSCKASGFSLSSHDISWVRQAPGQGLEWMGYIWSDENTYYASWAQGRVTMTTDTSTSTAYMELRSLRSDDTAVYYCARDQYRSSGVSDYDIWGPGTLVTVSS
VL: AAVMTQSPATLSVSPGERATLSCRSSQSVGNNNDLAWYQQKPGQAPRLLIYKASTRATGIPARFSGSGSGTEFTLTISSLQSEDFAVYYCLGGYDDDADNTFGGGTKVEIK
B4: humanized ra170 11.12 (antibody, V domains shown)
VH: B3 VH with N55S
VL: B3 VL

Legend:
[1] = target: T1, recombinant human ST2/IL-1R4 Fc chimera …; experiment: competition ELISA: antibody against biotinylated human IL33 on captured human ST2/IL-1R4 Fc chimera
Description: (§1) The test was performed on 384 well MaxiSorp™ microtiter plates (Sigma-Aldrich, Nunc. DE, Cat. No. 464718) at RT. After each incubation step plates were washed 3 times with PBST (Phosphate Buffered Saline Tween®-20). […] Thereafter the wells were blocked with PBS supplemented with 0.1% Tween®-20 and 2% BSA (Roche Diagnostics GmbH, DE) for 1 h. […] Dilutions of purified antibodies or supernatants from hybridoma/B-cells in PBS with 0.5% BSA and 0.05% Tween®-20 were incubated with the receptor protein for 1 h. Biotinylated human IL33 (PeproTech, US, Cat No. 500-P261) was added for an additional hour to build up the complex. IL33 was biotinylated with Sulfo-NHS-LC-Biotin (Thermo Scientific Pierce, US, Cat. No. 21327) according to the manufacturer's protocol and purified using Zeba™ Desalt Spin Column (Thermo Scientific Pierce, US, Cat. No. 89889). Binding of the biotinylated IL33 to the complex was detected with 1:4000 diluted streptavidin HRP (Roche Diagnostics GmbH, DE, Cat. No. 11089153001). After 1 h the plates were washed 6 times with PBST and developed with freshly prepared BM blue POD substrate solution (BM blue: 3,3′-5,5′-Tetramethylbenzidine, Roche Diagnostics GmbH, DE, Cat. No. 11484281001) for 12 minutes at RT. Absorbance was measured at 370 nm. […]

[2] = target: T2, human IL33R (ST2) on human cells; experiment: cell-based or functional assay
[3] = target: cynomolgus IL33R (ST2) on cynomolgus NK cells (cynomolgus); experiment: cell-based or functional assay
[4] = target: T4, recombinant cyno ST2 Fc chimera (cynomolgus); experiment: competition ELISA: antibody against biotinylated human IL33 on captured cyno ST2 Fc chimera
T4 construct: also called cynomolgus ST2
Description: as §1

[5] = target: T2, human IL33R (ST2) on human cells; experiment: cell-based or functional assay; remark: listed apart in the source
[6] = target: T3, Monomeric human ST2 ECD with 6His Avitag; experiment: SPR (BIACORE T100, 37 C, pH 7.4), antibody captured by anti-human Fc, monomeric ST2 ECD in solution
Description: (§2) Monomeric human ST2 ECD with 6His Avitag™ (Avidity, LLC, US) was added in various concentrations in solution. Association was measured by injection of ST2 ECD for a contact time of 120 sec. (single cycle-kinetic) at 37° C.; dissociation was measured by washing the chip surface with buffer for 1800 sec. at 37° C. For calculation of apparent KD and other kinetic parameters the Langmuir 1:1 model was used.

[7] = target: T3, Monomeric human ST2 ECD with 6His Avitag; experiment: SPR (BIACORE T100, 37 C, pH 7.4), antibody captured by anti-human Fc, monomeric ST2 ECD in solution, apparent KD, 1:1 model
Description: as §2

Binder | IC50 [1] [nM] | IC50, GM-CSF release of KU812 basophil cells stimulated with IL33 [2] [nM] | IC50, IFN-γ secretion by human NK cells stimulated with IL33 and IL-12 [2] [nM] | IC50, IL-5 release of KU812 basophil cells stimulated with IL33 [2] [nM] | IC50, IL-5 release of human Th2 cells restimulated with IL33 [2] [nM] | IC50, IL-5 release of primary mast cells stimulated with IL33 [2] [nM] | IC50, IL-13 release of KU812 basophil cells stimulated with IL33 [2] [nM] | IC50, IL-13 release of human Th2 cells restimulated with IL33 [2] [nM] | IC50, IL-13 release of primary mast cells stimulated with IL33 [2] [nM] | IC50, eosinophil viability (IL33 dependent survival) [2] [nM] | IC50, IFNγ release of cynomolgus NK cells stimulated with human IL33 and cynomolgus IL-12 [3] [nM] | IC50 [4] [nM] | NFkB IC50 [5] [nM] | koff [6] [s⁻¹] | kon [6] [M⁻¹ s⁻¹] | t1/2 [6] [min] | Kd [7] [nM]
B1 | 0.32 | 1.31 | 0.27 | 1.48 | 2.77 | ≤ 0.2 | 3.49 | 1.1 | ≤ 0.4 | 1.3 | 0.109 | 0.13 | 0.025 |  |  |  | 
B2 |  |  |  |  |  |  |  |  |  |  |  |  |  | 1.3e-05 | 4.6e+06 | 881 | 0.0027
B3 |  |  | 1.3 |  |  |  |  |  |  |  |  |  | 0.28 | 0.0051 | 4.9e+06 | 2 | 1.1
B4 |  |  | 1.8 |  |  |  |  |  |  |  |  |  | 0.04 | 0.00043 | 3.1e+06 | 27 | 0.14
